Source: the Immune Epitope Database (IEDB)

How the values were obtained:
[1] = target: HLA-B*54:01; assay: IEDB peptide-MHC binding, purified MHC/competitive/radioactivity; filed as Kd, often an IC50 or EC50 that approximates it; ≥ and ≤ were set here for values at or beyond the usual limits of such assays
[2] = target: HLA-B*07:02; assay: as above
[3] = target: HLA-B*51:01; assay: as above
[4] = target: HLA-B*35:01; assay: as above
[5] = target: HLA-B*57:01; assay: IEDB peptide-MHC binding, purified MHC/direct/fluorescence; filed as Kd, often an IC50 or EC50 that approximates it; ≥ and ≤ were set here for values at or beyond the usual limits of such assays
[6] = target: HLA-B*53:01; assay: IEDB peptide-MHC binding, purified MHC/competitive/radioactivity; filed as Kd, often an IC50 or EC50 that approximates it; ≥ and ≤ were set here for values at or beyond the usual limits of such assays
[7] = target: HLA-A*24:02; assay: IEDB peptide-MHC binding, purified MHC/competitive/fluorescence; ≥ and ≤ were set here for values at or beyond the usual limits of such assays
[8] = target: HLA-A*02:01; assay: as above
[9] = target: HLA-A*02:01; assay: IEDB peptide-MHC binding, purified MHC/competitive/fluorescence; filed as Kd, often an IC50 or EC50 that approximates it; ≥ and ≤ were set here for values at or beyond the usual limits of such assays
[10] = target: HLA-A*69:01; assay: IEDB peptide-MHC binding, purified MHC/direct/fluorescence; filed as Kd, often an IC50 or EC50 that approximates it; ≥ and ≤ were set here for values at or beyond the usual limits of such assays; conditions: source organism: Homo sapiens
[11] = target: HLA-A*01:01; assay: as above; conditions: source organism: Homo sapiens
[12] = target: HLA-A*11:01; assay: as above; conditions: source organism: Homo sapiens
[13] = target: HLA-B*27:05; assay: as above; conditions: source organism: Homo sapiens
[14] = target: HLA-A*03:01; assay: as above; conditions: source organism: Homo sapiens
[15] = target: HLA-A*31:01; assay: as above; conditions: source organism: Homo sapiens
[16] = target: HLA-A*30:01; assay: IEDB peptide-MHC binding, purified MHC/competitive/radioactivity; filed as Kd, often an IC50 or EC50 that approximates it; ≥ and ≤ were set here for values at or beyond the usual limits of such assays
[17] = target: HLA-A*03:01; assay: as above; conditions: source organism: Dengue virus 1 Brazil/97-11/1997
[18] = target: HLA-B*58:01; assay: IEDB peptide-MHC binding, purified MHC/direct/fluorescence; filed as Kd, often an IC50 or EC50 that approximates it; ≥ and ≤ were set here for values at or beyond the usual limits of such assays; conditions: source organism: Burkholderia lata
[19] = source organism: Vaccinia virus WR
[20] = source organism: Sudan ebolavirus
[21] = source organism: Triticum aestivum
[22] = source organism: SARS coronavirus Tor2
[23] = source organism: Zaire ebolavirus
[24] = source organism: Vaccinia virus Copenhagen
[25] = source organism: Lassa virus Josiah

Sequence: TPNYMKLLV
- Kd [1, 19]: 30.7 nM
- Kd [2, 19]: 51.3 nM
- Kd [3, 19]: ≥ 77500 nM
- Kd [4, 19]: 8.41 nM

Sequence: ISYIMLIFF
- Kd ([5]; source organism: Yellow fever virus): 2960 nM

Sequence: SPMLYQLLEA
- Kd [6, 19]: 228 nM
- Kd [1, 19]: 8.77 nM
- Kd [2, 19]: 94 nM
- Kd [3, 19]: ≥ 69600 nM
- Kd [4, 19]: 143 nM

Sequence: SINVEYRFL
- IC50 [7, 19]: 27700 nM
- IC50 [8, 19]: 27200 nM

Sequence: SFFVWVIIL
- IC50 [7, 20]: ≥ 72500 nM

Sequence: QPQEQVPLV
- Kd [6, 21]: ≥ 36600 nM
- Kd [1, 21]: 12100 nM
- Kd [2, 21]: ≥ 77500 nM
- Kd [3, 21]: 4830 nM
- Kd [4, 21]: ≥ 23700 nM

Sequence: QPFPSQQPY
- Kd [6, 21]: 7550 nM
- Kd [1, 21]: ≥ 78100 nM
- Kd [2, 21]: ≥ 77500 nM
- Kd [3, 21]: ≥ 43500 nM
- Kd [4, 21]: 66.8 nM

Sequence: RPNHTIKGSF
- Kd [6, 22]: ≥ 69900 nM
- Kd [1, 22]: ≥ 69900 nM
- Kd [2, 22]: 57.7 nM
- Kd [3, 22]: ≥ 69600 nM
- Kd [4, 22]: ≥ 69900 nM

Sequence: QDGLICGLR
- IC50 [7, 23]: 428 nM
- IC50 [8, 23]: 13300 nM

Sequence: QVHAEQGLI
- IC50 [7, 23]: 47000 nM

Sequence: HPFIYVIRHV
- Kd [6, 19]: 2010 nM
- Kd [1, 19]: 2.71 nM
- Kd [2, 19]: 11700 nM
- Kd [3, 19]: 1020 nM
- Kd [4, 19]: 7040 nM

Sequence: YLSDSAINI
- Kd [9, 24]: 1.3 nM

Sequence: ITTAVKTVL
- IC50 [7, 20]: 37400 nM
- IC50 [8, 20]: 55300 nM

Sequence: VPDADPPIPY
- Kd [6, 19]: 1650 nM
- Kd [1, 19]: 19300 nM
- Kd [2, 19]: 2020 nM
- Kd [3, 19]: ≥ 69600 nM
- Kd [4, 19]: 142 nM

Sequence: KSDPIMLLK
- Kd [10]: 1500 nM
- Kd [11]: 345 nM
- Kd [12]: 40.8 nM
- Kd [13]: 7470 nM
- Kd [14]: 381 nM
- Kd [15]: 8130 nM

Sequence: STSSSYLYA
- Kd [16, 24]: 13.3 nM

Sequence: AAMYQYIFL
- Kd [16, 19]: 7.53 nM

Sequence: PKAENTNTS
- IC50 [7, 23]: 61000 nM

Sequence: CPKIFNNNY
- Kd [6, 19]: 331 nM
- Kd [1, 19]: 13000 nM
- Kd [2, 19]: ≥ 72900 nM
- Kd [3, 19]: ≥ 77500 nM
- Kd [4, 19]: 160 nM

Sequence: WPYIASRTSI
- Kd [6, 25]: ≥ 23200 nM
- Kd [1, 25]: 714 nM
- Kd [2, 25]: 55.6 nM
- Kd [3, 25]: 45.8 nM
- Kd [4, 25]: ≥ 72000 nM

Sequence: VPLVQQQQFL
- Kd [6, 21]: 4820 nM
- Kd [1, 21]: ≥ 69900 nM
- Kd [2, 21]: 8750 nM
- Kd [3, 21]: 5910 nM
- Kd [4, 21]: 16100 nM

Sequence: RCLKPVILK
- Kd ([16]; source organism: Dengue virus 1 Brazil/97-11/1997): 220 nM
- Kd [17]: 156 nM

Sequence: MPNESRVKQW
- Kd [6, 19]: 30.4 nM
- Kd [1, 19]: 5360 nM
- Kd [2, 19]: 2390 nM
- Kd [3, 19]: ≥ 69600 nM
- Kd [4, 19]: 2290 nM

Sequence: DPEYFDNERI
- Kd [6, 19]: 1740 nM
- Kd [1, 19]: 2260 nM
- Kd [2, 19]: ≥ 69600 nM
- Kd [3, 19]: 3860 nM
- Kd [4, 19]: ≥ 34800 nM

Sequence: LGADLDAVI
- IC50 [7, 19]: 7660 nM
- IC50 [8, 19]: 20500 nM

Sequence: ETLWSPWKL
- Kd ([5]; source organism: Burkholderia lata): ≥ 20000 nM
- Kd [18]: 1410 nM

Sequence: SPYNSQNAVA
- Kd [6, 22]: 15900 nM
- Kd [1, 22]: 1.4 nM
- Kd [2, 22]: 59.4 nM
- Kd [3, 22]: 3470 nM
- Kd [4, 22]: 8240 nM

Sequence: RAKSPTRQS
- Kd [16, 19]: 260 nM

Sequence: RPSIGNVFKA
- Kd [6, 19]: ≥ 36400 nM
- Kd [1, 19]: 644 nM
- Kd [2, 19]: 3830 nM
- Kd [3, 19]: ≥ 69600 nM
- Kd [4, 19]: ≥ 69900 nM

Sequence: YLLEMLWRL
- Kd ([9]; source organism: Human herpesvirus 4 strain B95-8): 4.5 nM

Sequence: RDGVKRLEE
- IC50 [7, 23]: ≥ 89800 nM
